In US20060263802A1 (CRUCELL HOLLAND B V, published 2006) one finds OD value data, which are given here for 1 molecule.

Common to all, as to test: PEPSCAN ELISA, looped 15-mer, 10 ug/ml
The target of test [1] is looped peptide […] (rabies virus strain ERA).
Test [2] has the same target. This is another data set of the same source.
In test [3] the target is looped peptide … (rabies virus strain ERA).
The target is the same in test [4]. The source holds these as a separate data set.
The target is the same in test [5]. The source holds these as a separate data set.
For test [6] the target is unchanged. This is another data set of the same source.
The target of test [7] is looped peptide […] (rabies virus strain ERA). The source holds these as a separate data set.
Test [8] has the same target. This is another data set of the same source.
In test [9] the target is looped peptide … (rabies virus strain ERA). This is another data set of the same source.
The target is the same in test [10]. The source holds these as a separate data set.
Test [11] concerns the target looped peptide […] (rabies virus strain ERA). The source holds these as a separate data set.
Test [12] deals with looped peptide … (rabies virus strain ERA). This is another data set of the same source.
The target in test [13] is looped peptide […] (rabies virus strain ERA). This is another data set of the same source.

B1: human monoclonal antibody CRJA (antibody, V domains shown)
VH: EVQLLESGGGLVQPGGSLRLSCAASGFTFSNYAMSWVRQAPGKGLEWVSAISASGHSTYLADSVKGRFTISRDNSKNTLYLQMNSLRAEDTAVYYCAKDREVTMIVVLNGGFDYWGQGTRVTVSS
VL: EIVLTQSPATLSLSPGERATLACRASQTASRYLAWYQQKPGQAPRLLIYDTSNRATGIPARFSGSGSGTDFTLSISSLEPEDFAVYYCQQRFNWPWTFGQGTKVEFK
In the case of B1, the OD value in test [1] was determined as 152; in test [2], 320; in [3] it was 71; in [4] it was 90; in test [5] it was 87; in test [6], 50. Further, the OD value worked out at 164 in test [7]; 468 in test [8]; 54 in [9]; 79 in test [10]; 123 in [11]; 82 in test [12]. For the same molecule, the OD value in [13] stood at 93.
